Assay [1] has as its target HIV-1 NefSF2 wild type, full length (1-210), C210A (HIV-1 SF2) (UniProt P03407). The experiment in a line: ITC.
Assay [2] has the same target. Nature of the assay: ITC; Nef (40 to 50 µM) in the cell, GST-fused inhibitor protein (400 to 500 µM) in the syringe; 10 mM Tris/HCl pH 8.0, 100 mM NaCl; 15 °C. (ITC needs no label: the signal is the heat of the interaction.)
Assay [3] concerns the target HIV-1 NefSF2 mutant (P76A, P79A, R81A), C210A (HIV-1 SF2) (UniProt P03407). The experiment in a line: ITC; Nef (40 to 50 µM) in the cell, inhibitor protein (400 to 500 µM) in the syringe; 10 mM Tris/HCl pH 8.0, 100 mM NaCl; 25 °C.
The target in assay [4] is GST-NI3-9, Hck-SH3 (VSWSPD) - polyGly linker - CD4 cytoplasmic tail (human) (UniProt P08631). The experiment in a line: SPR; GST-NI3-9 held on a CM5 chip via an anti-GST antibody; hexa-histidine tagged Nef 400-1000 nM flowed at 5 µl/min; 10 mM HEPES pH 8.0, 150 mM NaCl, 0.005% IGEPAL; 25 °C. In general terms: Surface plasmon resonance follows binding to a sensor surface in real time, without labels.

The target in assay [5] is fluorescence-labelled NI3-3 (human) (UniProt P01730). Nature of the assay: other fluorescence titration.
Assay [6] addresses HIV-1 NefSF2 (Δ1-27), C210A (HIV-1 SF2) (UniProt P03407). The experiment in a line: ITC.
Assay [7] addresses HIV-1 NefSF2 (Δ1-44), C210A (HIV-1 SF2) (UniProt P03407). The experiment in a line: ITC.
For assay [8], the target named is HIV-1 NefSF2 (Δ1-58), C210A (HIV-1 SF2) (UniProt P03407). Nature of the assay: ITC.

As to “GST-NI3-1, CD4 cytoplasmic tail (37 residues) - five residue linker - Hck-SH3 (VSWSPD) (from UniProt P01730 419-458; P08631-1 78-138) (designed binder)”, in assay [1], the Kd – broadly, a measure of binding affinity in units of concentration – worked out at 84 nM; the dH was -8.51 kcal/mol; the stoichiometry N (as a rule, a count of units in the complex or per binding partner) stood at 1.09.
In assay [1], “GST-NI3-4, CD4 cytoplasmic tail (dileucine LL to AA) fused to Hck-SH3 (VSWSPD) (from UniProt P01730 419-458; P08631-1 78-138) (designed binder)” registered a Kd of 544 nM, a dH of -8.55 kcal/mol and a stoichiometry N of 0.97.
In assay [1], “GST-NI3-3, CD4 cytoplasmic tail (CQC to SQS) fused to Hck-SH3 (VSWSPD) (from UniProt P01730 419-458; P08631-1 78-138) (designed binder)” displayed a Kd of 88 nM, a dH of -8.64 kcal/mol and a stoichiometry N of 1.12.
For “GST-NI3-5, wild type CD4 sequence attached with a glycine-serine-rich linker of 12 residues to Hck-SH3 (VSWSPD) (from UniProt P01730 419-458; P08631-1 78-138) (designed binder)”, in that order: 64 nM, -8.22 kcal/mol and 1.06.
On to “GST-NI3-9, Hck-SH3 (VSWSPD) - polyGly linker - CD4 cytoplasmic tail (from UniProt P08631-1;P01730) (designed binder)”, for which, in assay [2], the Kd was found to be 26 nM, the dH was -11.4 kcal/mol and the stoichiometry N was 0.97. In assay [3], this substance came in with a Kd of 1170 nM, a dH of -4.1 kcal/mol and a stoichiometry N of 0.85.
In assay [1], “GST-NI3-10, Hck-SH3 (VSWSPD) - linker - CD4 cytoplasmic tail with the two cysteines mutated (from UniProt P08631-1 78-138; P01730 419-458) (designed binder)” gave a Kd of 27 nM, a dH of -11.5 kcal/mol and a stoichiometry N of 1.03.
For “GST-NI3-8, CD4 cytoplasmic tail shortened to 23 residues fused N-terminally to Hck-SH3 (VSWSPD) (from UniProt P01730 419-458; P08631-1 78-138) (designed binder)”, in that order: 107 nM, -8.2 kcal/mol and 0.93.
“HIV-1 NefSF2 (Δ1-44), C210A (from UniProt P03407 45-210) (domain or fragment)” had a Kd in assay [4] of 28 nM.
In assay [5], “HIV-1 NefSF2 wild type, full length (1-210), C210A (from UniProt P03407) (natural protein)” came in with a Kd of 37 nM.
For “GST-NI3-13, Hck-SH3 (VSWSPD) - linker - CD4 cytoplasmic tail truncated before the cysteines (from UniProt P08631-1 79-138; P01730 419-458) (designed binder)”, the Kd in assay [6] turned out to be 51 nM; in assay [7] it was 96 nM; in assay [8], 149 nM; in assay [1], 41 nM. Also, the dH is -12.2 kcal/mol in assay [6], -16.1 kcal/mol in assay [7], -13.8 kcal/mol in assay [8] and -7.04 kcal/mol in assay [1]. The stoichiometry N in assay [6] was 1; in assay [7], 1.06; in assay [8], 0.98; in assay [1] it was 0.98.

Source of the values: article PMC3098852.
